Laboratory results as given in the supplement of paper PMC10567573.

B1: PDS5B (parent)
chain: IYKKYALQSAAGKDAAKQIAWIKD

Variants of: B1
Experiment: protein stability index of a GFP-peptide fusion (GPS, HEK-293T) (PSI 1-6); higher = more stable
Conditions: c terminus: a fixed tail appended
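Further: lentivirally expressed fusions sorted by FACS into six bins by GFP to DsRed ratio, PSI derived from sequencing read proportions per bin multiplied by bin number.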

| Variant | protein stability index |
| --- | --- |
| IYKKYALQSAAGKDAAKQIAWIKK | 2.19 |
| IYKKYALQSAAGKDAAKQIAWIKN | 2.24 |
| IYKKYALQSAAGKDAAKQIAWIKC | 2.08 |
| IYKKYALQSAAGKDAAKQIAWIKA | 2 |
| IYKKYALQSAAGKDAAKQIAWIKP | 2.79 |
| IYKKYALQSAAGKDAAKQIAWIKI | 1.76 |
| IYKKYALQSAAGKDAAKQIAWIKE | 1.75 |
| IYKKYALQSAAGKDAAKQIAWIKM | 1.59 |
| IYKKYALQSAAGKDAAKQIAWIKS | 2.42 |
| IYKKYALQSAAGKDAAKQIAWIKW | 1.66 |
| IYKKYALQSAAGKDAAKQIAWIKG | 2.08 |
| IYKKYALQSAAGKDAAKQIAWIKL | 2.02 |
| IYKKYALQSAAGKDAAKQIAWIKR | 1.97 |
| IYKKYALQSAAGKDAAKQIAWIKH | 2.14 |
| IYKKYALQSAAGKDAAKQIAWIKF | 2.15 |
| IYKKYALQSAAGKDAAKQIAWIKT | 1.94 |
| IYKKYALQSAAGKDAAKQIAWIKY | 1.14 |
| IYKKYALQSAAGKDAAKQIAWIKV | 2.52 |
| IYKKYALQSAAGKDAAKQIAWIKQ | 1.7 |
| IYKKYALQSAAGKDAAKQIAWITD | 2.18 |
| IYKKYALQSAAGKDAAKQIAWIND | 2.24 |
| IYKKYALQSAAGKDAAKQIAWIGD | 2.68 |
| IYKKYALQSAAGKDAAKQIAWIED | 2.53 |

| Variant | protein stability index |
| --- | --- |
| IYKKYALQSAAGKDAAKQIAWIDD | 2.98 |
| IYKKYALQSAAGKDAAKQIAWIID | 2.64 |
| IYKKYALQSAAGKDAAKQIAWIAD | 2.11 |
| IYKKYALQSAAGKDAAKQIAWIRD | 1.52 |
| IYKKYALQSAAGKDAAKQIAWIPD | 2.36 |
| IYKKYALQSAAGKDAAKQIAWIQD | 2.23 |
| IYKKYALQSAAGKDAAKQIAWIMD | 2 |
| IYKKYALQSAAGKDAAKQIAWIHD | 2.55 |
| IYKKYALQSAAGKDAAKQIAWISD | 2.98 |
| IYKKYALQSAAGKDAAKQIAWIVD | 1.54 |
| IYKKYALQSAAGKDAAKQIAWILD | 3.36 |
| IYKKYALQSAAGKDAAKQIAWIFD | 2.39 |
| IYKKYALQSAAGKDAAKQIAWIWD | 2.62 |
| IYKKYALQSAAGKDAAKQIAWIYD | 2.44 |
| IYKKYALQSAAGKDAAKQIAWICD | 1.47 |
| IYKKYALQSAAGKDAAKQIAFIKD | 2.31 |
| IYKKYALQSAAGKDAAKQIARIKD | 2.74 |
| IYKKYALQSAAGKDAAKQIAKIKD | 2.65 |
| IYKKYALQSAAGKDAAKQIATIKD | 3.55 |
| IYKKYALQSAAGKDAAKQIAAIKD | 3.22 |
| IYKKYALQSAAGKDAAKQIASIKD | 3.19 |
| IYKKYALQSAAGKDAAKQIAMIKD | 3.2 |
| IYKKYALQSAAGKDAAKQIAYIKD | 2.42 |

| Variant | protein stability index |
| --- | --- |
| IYKKYALQSAAGKDAAKQIACIKD | 3.02 |
| IYKKYALQSAAGKDAAKQIALIKD | 2.19 |
| IYKKYALQSAAGKDAAKQIANIKD | 3.83 |
| IYKKYALQSAAGKDAAKQIAIIKD | 2.88 |
| IYKKYALQSAAGKDAAKQIAGIKD | 2.92 |
| IYKKYALQSAAGKDAAKQIAPIKD | 3.57 |
| IYKKYALQSAAGKDAAKQIAVIKD | 2.72 |
| IYKKYALQSAAGKDAAKQIADIKD | 3.05 |
| IYKKYALQSAAGKDAAKQIAHIKD | 2.75 |
| IYKKYALQSAAGKDAAKQIAQIKD | 3.09 |
| IYKKYALQSAAGKDAAKQIAEIKD | 2.91 |
| IYKKYALQSAAGKDAAKQIAWDKD | 3.78 |
| IYKKYALQSAAGKDAAKQIAWMKD | 2.14 |
| IYKKYALQSAAGKDAAKQIAWKKD | 3.21 |
| IYKKYALQSAAGKDAAKQIAWVKD | 3.21 |
| IYKKYALQSAAGKDAAKQIAWNKD | 3.26 |
| IYKKYALQSAAGKDAAKQIAWFKD | 2.29 |
| IYKKYALQSAAGKDAAKQIAWYKD | 2.52 |
| IYKKYALQSAAGKDAAKQIAWTKD | 3.31 |
| IYKKYALQSAAGKDAAKQIAWPKD | 3.1 |
| IYKKYALQSAAGKDAAKQIAWWKD | 2.28 |
| IYKKYALQSAAGKDAAKQIAWCKD | 2.75 |
| IYKKYALQSAAGKDAAKQIAWSKD | 3.09 |

| Variant | protein stability index |
| --- | --- |
| IYKKYALQSAAGKDAAKQIAWEKD | 4.49 |
| IYKKYALQSAAGKDAAKQIAWAKD | 3.14 |
| IYKKYALQSAAGKDAAKQIAWLKD | 2.33 |
| IYKKYALQSAAGKDAAKQIAWRKD | 3.43 |
| IYKKYALQSAAGKDAAKQIAWHKD | 3.12 |
| IYKKYALQSAAGKDAAKQIAWGKD | 2.8 |
| IYKKYALQSAAGKDAAKQIAWQKD | 3.27 |
| IYKKYALQSAAGKDAAKQIQWIKD | 2.29 |
| IYKKYALQSAAGKDAAKQIPWIKD | 2.66 |
| IYKKYALQSAAGKDAAKQIMWIKD | 2.02 |
| IYKKYALQSAAGKDAAKQILWIKD | 1.89 |
| IYKKYALQSAAGKDAAKQIRWIKD | 1.84 |
| IYKKYALQSAAGKDAAKQISWIKD | 2.4 |
| IYKKYALQSAAGKDAAKQIWWIKD | 2.68 |
| IYKKYALQSAAGKDAAKQIIWIKD | 2.31 |
| IYKKYALQSAAGKDAAKQIYWIKD | 2.22 |
| IYKKYALQSAAGKDAAKQIVWIKD | 2.08 |
| IYKKYALQSAAGKDAAKQINWIKD | 2.68 |
| IYKKYALQSAAGKDAAKQIKWIKD | 2.26 |
| IYKKYALQSAAGKDAAKQITWIKD | 2.23 |
